# B1: ANKRD9 (parent)
# chain: LLEDMRASEAFHWDERGRAAAYSP
# B2: TRAF3IP2 (parent)
# chain: APWNYHYHCPGSPDHQVPYGHDYP
# Variants of: B1
# Test: protein stability index of a GFP-peptide fusion (GPS, HEK-293T) (PSI 1-6); higher = more stable
# Conditions: c terminus: a fixed tail appended
# 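Note: lentivirally expressed fusions sorted by FACS into six bins by GFP to DsRed ratio, PSI derived from sequencing read proportions per bin multiplied by bin number.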
row,Variant,protein stability index
1,LLEDMRASEAFHWDERGRAAAYSF,1.23
2,LLEDMRASEAFHWDERGRAAAYSV,1.68
3,LLEDMRASEAFHWDERGRAAAYSS,3.62
4,LLEDMRASEAFHWDERGRAAAYSL,1.38
5,LLEDMRASEAFHWDERGRAAAYSY,1.6
6,LLEDMRASEAFHWDERGRAAAYSE,2.48
7,LLEDMRASEAFHWDERGRAAAYSA,2.1
8,LLEDMRASEAFHWDERGRAAAYSD,1.75
9,LLEDMRASEAFHWDERGRAAAYSN,2.41
10,LLEDMRASEAFHWDERGRAAAYST,2.34
11,LLEDMRASEAFHWDERGRAAAYSK,1.53
12,LLEDMRASEAFHWDERGRAAAYSH,2.19
13,LLEDMRASEAFHWDERGRAAAYSQ,1.58
14,LLEDMRASEAFHWDERGRAAAYSR,1.75
15,LLEDMRASEAFHWDERGRAAAYAP,2.09
16,LLEDMRASEAFHWDERGRAAAYNP,1.16
17,LLEDMRASEAFHWDERGRAAAYFP,1.35
18,LLEDMRASEAFHWDERGRAAAYVP,2.08
19,LLEDMRASEAFHWDERGRAAAYIP,2.61
20,LLEDMRASEAFHWDERGRAAAYRP,1.91
21,LLEDMRASEAFHWDERGRAAAYQP,3.31
22,LLEDMRASEAFHWDERGRAAAYGP,1.68

row,Variant,protein stability index
1,LLEDMRASEAFHWDERGRAAAYPP,1.4
2,LLEDMRASEAFHWDERGRAAAYEP,1.85
3,LLEDMRASEAFHWDERGRAAAYLP,2.1
4,LLEDMRASEAFHWDERGRAAAYMP,2.68
5,LLEDMRASEAFHWDERGRAAAYDP,2.09
6,LLEDMRASEAFHWDERGRAAAYHP,1.98
7,LLEDMRASEAFHWDERGRAAAYKP,2.05
8,LLEDMRASEAFHWDERGRAAAYTP,2.08
9,LLEDMRASEAFHWDERGRAAAYYP,1.74
10,LLEDMRASEAFHWDERGRAAALSP,1.81
11,LLEDMRASEAFHWDERGRAAAQSP,2.39
12,LLEDMRASEAFHWDERGRAAASSP,2
13,LLEDMRASEAFHWDERGRAAATSP,4.08
14,LLEDMRASEAFHWDERGRAAAGSP,1.63
15,LLEDMRASEAFHWDERGRAAAMSP,1.64
16,LLEDMRASEAFHWDERGRAAARSP,1.81
17,LLEDMRASEAFHWDERGRAAAHSP,1.76
18,LLEDMRASEAFHWDERGRAAAISP,2.17
19,LLEDMRASEAFHWDERGRAAAKSP,2.18
20,LLEDMRASEAFHWDERGRAAAESP,2.62
21,LLEDMRASEAFHWDERGRAAADSP,2.2

# Variants of: B2
# Test: as above
# Conditions: c terminus: a fixed tail appended
row,Variant,protein stability index
1,APWNYHYPCPGSPDHQVPYGHDYP,1.99
2,APWNYHYCCPGSPDHQVPYGHDYP,2.42
3,APWNYHYNCPGSPDHQVPYGHDYP,2.1
4,APWNYHYSCPGSPDHQVPYGHDYP,2.44
5,APWNYHYACPGSPDHQVPYGHDYP,2.06
6,APWNYHYFCPGSPDHQVPYGHDYP,2.22
7,APWNYHYQCPGSPDHQVPYGHDYP,2.82
8,APWNYHYMCPGSPDHQVPYGHDYP,1.69
9,APWNYHYICPGSPDHQVPYGHDYP,2.08
10,APWNYHYGCPGSPDHQVPYGHDYP,2.12
11,APWNYHYLCPGSPDHQVPYGHDYP,2.2
12,APWNYHYRCPGSPDHQVPYGHDYP,1.66
13,APWNYHYDCPGSPDHQVPYGHDYP,2.9
14,APWNYHYECPGSPDHQVPYGHDYP,2.25
15,APWNYHYKCPGSPDHQVPYGHDYP,1.73
16,YPWNYHYHCPGSPDHQVPYGHDYP,2.37
17,PPWNYHYHCPGSPDHQVPYGHDYP,2.71
18,HPWNYHYHCPGSPDHQVPYGHDYP,3.12
19,KPWNYHYHCPGSPDHQVPYGHDYP,2.81
20,FPWNYHYHCPGSPDHQVPYGHDYP,2.12
21,GPWNYHYHCPGSPDHQVPYGHDYP,3.39
22,CPWNYHYHCPGSPDHQVPYGHDYP,2.72
23,LPWNYHYHCPGSPDHQVPYGHDYP,2.08
24,EPWNYHYHCPGSPDHQVPYGHDYP,2.91
25,QPWNYHYHCPGSPDHQVPYGHDYP,1.53
26,SPWNYHYHCPGSPDHQVPYGHDYP,2.18

row,Variant,protein stability index
1,DPWNYHYHCPGSPDHQVPYGHDYP,3.33
2,IPWNYHYHCPGSPDHQVPYGHDYP,1.71
3,VPWNYHYHCPGSPDHQVPYGHDYP,1.71
4,NPWNYHYHCPGSPDHQVPYGHDYP,2.32
5,MPWNYHYHCPGSPDHQVPYGHDYP,2.5
6,RPWNYHYHCPGSPDHQVPYGHDYP,2.1
7,TPWNYHYHCPGSPDHQVPYGHDYP,1.87
8,ADWNYHYHCPGSPDHQVPYGHDYP,3.38
9,AAWNYHYHCPGSPDHQVPYGHDYP,2.66
10,AWWNYHYHCPGSPDHQVPYGHDYP,1.27
11,AKWNYHYHCPGSPDHQVPYGHDYP,2.04
12,AGWNYHYHCPGSPDHQVPYGHDYP,1.59
13,ASWNYHYHCPGSPDHQVPYGHDYP,2.1
14,AYWNYHYHCPGSPDHQVPYGHDYP,1.51
15,AEWNYHYHCPGSPDHQVPYGHDYP,3.07
16,ANWNYHYHCPGSPDHQVPYGHDYP,3.37
17,AFWNYHYHCPGSPDHQVPYGHDYP,1.95
18,ACWNYHYHCPGSPDHQVPYGHDYP,2.15
19,AVWNYHYHCPGSPDHQVPYGHDYP,2.45
20,ATWNYHYHCPGSPDHQVPYGHDYP,2.21
21,AMWNYHYHCPGSPDHQVPYGHDYP,2.07
22,ALWNYHYHCPGSPDHQVPYGHDYP,1.76
23,AIWNYHYHCPGSPDHQVPYGHDYP,1.58
24,AQWNYHYHCPGSPDHQVPYGHDYP,2.35
25,ARWNYHYHCPGSPDHQVPYGHDYP,2.28

# From the supplement of paper PMC10567573
